From IntAct's records for PubMed 18385733

B1: Mediator of RNA polymerase II transcription subunit 15 (Saccharomyces cerevisiae), P19659 (parent)
chain: MSAAPVQDKDTLSNAERAKNVNGLLQVLMDINTLNGGSSDTADKIRIHAKNFEAALFAKSSSKKEYMDSMNEKVAVMRNTYNTRKNAVTAAAANNNIKPVEQHHINNLKNSGNSANNMNVNMNLNPQMFLNQQAQARQQVAQQLRNQQQQQQQQQQQQRRQLTPQQQQLVNQMKVAPIPKQLLQRIPNIPPNINTWQQVTALAQQKLLTPQDMEAAKEVYKIHQQLLFKARLQQQQAQAQAQANNNNNGLPQNGNINNNINIPQQQQMQPPNSSANNNPLQQQSSQNTVPNVLNQINQIFSPEEQRSLLQEAIETCKNFEKTQLGSTMTEPVKQSFIRKYINQKALRKIQALRDVKNNNNANNNGSNLQRAQNVPMNIIQQQQQQNTNNNDTIATSATPNAAAFSQQQNASSKLYQMQQQQQAQAQAQAQAQAQAQAQAQAQAAQAAQAQAQAQAQAQAQAQAQAQAQAQAQAQAQAQAQAHAQHQPSQQPQQAQQQPNPLHGLTPTAKDVEVIKQLSLDASKTNLRLTDVTNSLSNEEKEKIKMKLKQGQKLFVQVSNFAPQVYIITKNENFLKEVFQLRIFVKEILEKCAEGIFVVKLDTVDRLIIKYQKYWESMRIQILRRQAILRQQQQMANNNGNPGTTSTGNNNNIATQQNMQQSLQQMQHLQQLKMQQQQQQQQQQQQQQQQQQQQQQQHIYPSSTPGVANYSAMANAPGNNIPYMNHKNTSSMDFLNSMENTPKVPVSAAATPSLNKTINGKVNGRTKSNTIPVTSIPSTNKKLSISNAASQQPTPRSASNTAKSTPNTNPSPLKTQTKNGTPNPNNMKTVQSPMGAQPSYNSAIIENAFRKEELLLKDLEIRKLEISSRFKHRQEIFKDSPMDLFMSTLGDCLGIKDEEMLTSCTIPKAVVDHINGSGKRKPTKAAQRARDQDSIDISIKDNKLVMKSKFNKSNRSYSIALSNVAAIFKGIGGNFKDLSTLVHSSSPSTSSNMDVGNPRKRKASVLEISPQDSIASVLSPDSNIMSDSKKIKVDSPDDPFMTKSGATTSEKQEVTNEAPFLTSGTSSEQFNVWDWNNWTSAT
partner: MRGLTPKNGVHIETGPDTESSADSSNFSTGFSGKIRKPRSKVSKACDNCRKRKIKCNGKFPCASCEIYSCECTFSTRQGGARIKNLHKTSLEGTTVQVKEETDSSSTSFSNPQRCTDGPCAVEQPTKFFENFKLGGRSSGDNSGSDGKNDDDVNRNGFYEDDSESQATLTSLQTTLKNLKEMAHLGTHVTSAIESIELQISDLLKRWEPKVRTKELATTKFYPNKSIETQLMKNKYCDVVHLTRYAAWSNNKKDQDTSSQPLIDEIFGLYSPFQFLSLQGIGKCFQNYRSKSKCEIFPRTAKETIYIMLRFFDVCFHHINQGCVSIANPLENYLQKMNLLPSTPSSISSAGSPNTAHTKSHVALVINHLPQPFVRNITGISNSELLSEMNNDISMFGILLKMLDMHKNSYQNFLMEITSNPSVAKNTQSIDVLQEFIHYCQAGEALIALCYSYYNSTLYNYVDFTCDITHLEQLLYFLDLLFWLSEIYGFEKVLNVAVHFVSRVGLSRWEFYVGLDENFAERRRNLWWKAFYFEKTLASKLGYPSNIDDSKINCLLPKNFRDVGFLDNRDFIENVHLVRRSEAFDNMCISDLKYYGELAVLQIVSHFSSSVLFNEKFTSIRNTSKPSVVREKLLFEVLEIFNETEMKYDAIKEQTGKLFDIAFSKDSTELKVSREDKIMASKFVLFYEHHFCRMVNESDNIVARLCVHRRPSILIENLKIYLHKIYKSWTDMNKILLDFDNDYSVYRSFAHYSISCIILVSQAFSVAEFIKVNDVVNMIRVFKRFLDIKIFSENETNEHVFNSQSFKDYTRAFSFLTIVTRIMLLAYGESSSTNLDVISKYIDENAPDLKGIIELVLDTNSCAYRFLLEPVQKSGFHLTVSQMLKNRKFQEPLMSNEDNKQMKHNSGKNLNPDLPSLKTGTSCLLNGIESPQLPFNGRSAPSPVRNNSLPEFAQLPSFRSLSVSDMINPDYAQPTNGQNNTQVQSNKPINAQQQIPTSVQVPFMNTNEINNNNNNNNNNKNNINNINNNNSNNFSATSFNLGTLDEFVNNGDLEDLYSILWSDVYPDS

Variants of: B1
Conditions: with pdr1_yeast PDR1, P12383

| Variant | effect of a mutation on the interaction |
| --- | --- |
| V27D | disrupting interaction |
| M77E | disrupting interaction |
| V76D | disrupting interaction |
| R78L | disrupting interaction |
| K63Q | disrupting interaction |
| S69D | disrupting interaction |
